Test results published in publication PMC3484135, “A Divalent Ion Is Crucial in the Structure and Dominant-Negative Function of ID Proteins, a Class of Helix-Loop-Helix Transcription Regulators” (PLoS ONE, 2012).

Biological target: the molecule itself
Test: crystal structure; hanging drop vapor diffusion; protein 7 mg/ml in 50 mM Tris pH 8.0, 100 mM NaCl; precipitant 0.1 M MES pH 6.5, 2.0 M potassium acetate; 2.1Å native dataset, phased from a Se-Met SAD dataset

B1: ID2 HLH (residues 24–82) with a C-terminal 14 amino acid stabilising polypeptide (domain or fragment, human)
chain: RSKTPVDDPMSLLYNMNDCYSKLKELVPSIPQNKKVSKMEILQHVIDYILDLQIALDSHLKPSFLVQSGDIAS
notes: ID2, human, HLH domain, residues 24–82, cloned from full-length cDNA (Genecopoeia Z0585); C-terminal 14 amino acid polypeptide added to increase stability; Expressed from pDest-565 with a TEV site at the N terminus of ID2 HLH; The native crystal is called ID2-Nterm-HLH in the methods, and a Se-Met form (ID2-HLH-Se-Met) was used for phasing; also called wild type ID2; ID2 WT; source: E. coli …
stoichiometry N: 2
